Data reported in patent CN114106176A (SHENZHEN PHENPENG BIOTHERAPY CO LTD, dated 2022).

Biological target: T1, 人CD22胞外段缀合His标签 (hCD22-His, ACRO, CD2-H52H8) (human, UniProt P20273 20-687)
T1 construct: extracellular domain; Bought recombinant protein; also called 人类hCD22-His; not shown: His tag
T1 sequence (looked up): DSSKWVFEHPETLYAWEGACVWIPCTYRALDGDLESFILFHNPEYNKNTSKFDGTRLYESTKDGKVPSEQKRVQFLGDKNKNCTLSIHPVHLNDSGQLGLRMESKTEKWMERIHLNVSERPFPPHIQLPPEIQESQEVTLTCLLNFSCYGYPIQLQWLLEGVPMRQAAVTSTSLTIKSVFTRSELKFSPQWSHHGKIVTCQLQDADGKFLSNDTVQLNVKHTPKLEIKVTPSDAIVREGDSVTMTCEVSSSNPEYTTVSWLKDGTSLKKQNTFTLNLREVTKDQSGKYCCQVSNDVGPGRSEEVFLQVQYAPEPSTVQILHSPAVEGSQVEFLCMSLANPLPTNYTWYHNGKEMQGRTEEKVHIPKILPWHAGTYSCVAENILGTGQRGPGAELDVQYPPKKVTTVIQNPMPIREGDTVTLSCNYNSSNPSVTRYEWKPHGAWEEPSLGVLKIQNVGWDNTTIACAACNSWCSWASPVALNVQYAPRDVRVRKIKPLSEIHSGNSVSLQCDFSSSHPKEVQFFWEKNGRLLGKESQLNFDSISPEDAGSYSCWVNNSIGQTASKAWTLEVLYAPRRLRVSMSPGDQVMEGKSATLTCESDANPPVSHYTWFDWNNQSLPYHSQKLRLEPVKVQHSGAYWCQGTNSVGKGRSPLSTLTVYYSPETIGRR
Test: ELISA, hCD22-His coated at 2 ug/ml, 3-fold antibody dilutions

B1: 5CD22-111-1-C3 (antibody, mouse IgG1, kappa, V domains shown)
VH: EVKLEESGGGLVQPGGFMKLSCVASGFTFSNYWMNWVRQSPERGLEWVAEIRLKSNDYATHYAESVKGRFTISRDDSKSNVYLQMNNLRAEDTGIYYCTRVYYYGRDYAMDYWGQGTSVTVSS
VL: QIVLTQSPAIMSASLGERVTMTCTASSSVSSIYLHWYQQKPGSSPKLWIYSTSNLASGVPGRFSGSGSGTSYSLTISSMEAEDAATYYCHQYHRSPRTFGGGTKLEIKR
- binding result: binds
